Data reported in patent US20170298096A1 (CANIMGUIDE THERAPEUTICS, published 2017).
No end group written: not given here.

T1: His-tagged P3028 (human, also: His-tag, terminus and sequence not given here)
T1 construct: in solution at 0.5 ug/mL over the peptide cards; found with anti-His-tag antibody and rabbit anti-mouse peroxidase (rampo); also called PGE73; not shown: His-tag
T1 peptide: VFDEFKPLVEEPQNLIK


Target: T1, His-tagged P3028
Assay: PEPSCAN chip ELISA, His-P3028 in solution;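 note: score is the raw OD at 405 nm from peroxidase colour with ABTS, imaged by CCD camera before and after staining, with wells showing air bubbles set to zero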
Procedure: After washing, the peroxidase substrate 2,2′-azine-di-3-ethylbenzthiazoline sulfonate (ABTS) and 2 μL of 3% H2O2 were added. The binding capacity of the mAb was measured as a color development at 405 nm (optical density, OD405). The color development was quantified with a charge-coupled device (CCD)—camera and an image processing system.
The OD405-values obtained by a CCD-camera was considered as raw data values (“rampo values,” “rampo units,” or “rampo scores”). […] First the CCD-camera made a picture of the card before peroxidase coloring and then again a picture after the peroxidase coloring. […] These values were copied into an excel file and labeled as a raw data file. One follow-up manipulation was allowed. Sometimes a well can contain an air-bubble resulting in a false-positive value. If manual inspection of the cards detect an air-bubble the value are set to 0 for that well.

First: KKLDTFFVKLSLTTER [SEQ ID NO 373]
Second: KRLDTFFVKLSLFTER [SEQ ID NO 407]
The “RAMPO Score” value of the first is higher: 494 rampo score for the first, 417 rampo score for the second.

Compared with KKLDTLFVKLSLFTER [SEQ ID NO 411], KKLDTGFVKLSLFTER [SEQ ID NO 446] is lower in “RAMPO Score” value: 408 rampo score for the first, 347 rampo score for the second.

Going from KKLDAFFVKLSLFTER [SEQ ID NO 447] to KKLDTFFVKLSLFPER [SEQ ID NO 383], the “RAMPO Score” value rises from 346 rampo score to 551 rampo score.

First: KKLDTFFVKLSLWTER [SEQ ID NO 375]
Second: KKLDTFPVKLSLFTER [SEQ ID NO 437]
The “RAMPO Score” value of the first is higher: 430 rampo score for the first, 356 rampo score for the second.

Going from KQLDTFFVKLSLFTER [SEQ ID NO 440] to KKLDTFFVKLSLFTEN [SEQ ID NO 390], the “RAMPO Score” value falls from 350 rampo score to 311 rampo score.

Compared with KELDTFFVKLSLFTER [SEQ ID NO 441], KKLDTFFVKLSLVTER [SEQ ID NO 374] is higher in “RAMPO Score” value: 349 rampo score for the first, 446 rampo score for the second.

Going from KLLDTFFVKLSLFTER [SEQ ID NO 454] to KKLDTFIVKLSLFTER [SEQ ID NO 397], the “RAMPO Score” value rises from 343 rampo score to 446 rampo score.

First: KKLDTFFVKLSLFLER [SEQ ID NO 380]
Second: KKLDTFHVKLSLFTER [SEQ ID NO 433]
The “RAMPO Score” value of the first is lower: 360 rampo score for the first, 364 rampo score for the second.

First: KKLDTFFIKLSLFTER [SEQ ID NO 416]
Second: KKLDTFFVKLSLFTET [SEQ ID NO 392]
The “RAMPO Score” value of the first is higher: 401 rampo score for the first, 292 rampo score for the second.

Going from KKLCTFFVKLSLFTER [SEQ ID NO 449] to KKLDTFAVKLSLFTER [SEQ ID NO 404], the “RAMPO Score” value rises from 344 rampo score to 426 rampo score.

Going from KKLDTFWVKLSLFTER [SEQ ID NO 425] to KKLDTFFVKLSLFGER [SEQ ID NO 377], the “RAMPO Score” value falls from 380 rampo score to 343 rampo score.

Going from KKLDTFFVKLSLFTQR [SEQ ID NO 450] to KKLMTFFVKLSLFTER [SEQ ID NO 423], the “RAMPO Score” value rises from 344 rampo score to 384 rampo score.

First: KKLDTFFVKLSLFTEF [SEQ ID NO 388]
Second: KKLDTFFVKLVLFTER [SEQ ID NO 419]
The “RAMPO Score” value of the first is lower: 297 rampo score for the first, 392 rampo score for the second.

First: KKLDTFFVKLSLFNER [SEQ ID NO 382]
Second: KKLDTFFVKLSLFWER [SEQ ID NO 386]
The “RAMPO Score” value of the first is higher: 599 rampo score for the first, 374 rampo score for the second.

Compared with KKLPTFFVKLSLFTER [SEQ ID NO 435], KKLDTFFVKLSLFMER [SEQ ID NO 381] is higher in “RAMPO Score” value: 364 rampo score for the first, 501 rampo score for the second.

First: KKLDTFFVKLSCFTER [SEQ ID NO 455]
Second: KKYDTFFVKLSLFTER [SEQ ID NO 452]
The “RAMPO Score” value of the first is lower: 342 rampo score for the first, 344 rampo score for the second.

Going from KMLDTFFVKLSLFTER [SEQ ID NO 417] to KKLDTFFVKLSLFFER [SEQ ID NO 376], the “RAMPO Score” value falls from 400 rampo score to 348 rampo score.

Going from KKLSTFFVKLSLFTER [SEQ ID NO 451] to KKLDEFFVKLSLFTER [SEQ ID NO 456], the “RAMPO Score” value falls from 344 rampo score to 341 rampo score.

Going from KKLDTWFVKLSLFTER [SEQ ID NO 444] to KKLDTFFVKLSFFTER [SEQ ID NO 422], the “RAMPO Score” value rises from 348 rampo score to 389 rampo score.

Compared with KKLDTFRVKLSLFTER [SEQ ID NO 432], KKLDTQFVKLSLFTER [SEQ ID NO 410] is higher in “RAMPO Score” value: 369 rampo score for the first, 410 rampo score for the second.

Going from KKLDTFFVKLSLFHER [SEQ ID NO 378] to KKLQTFFVKLSLFTER [SEQ ID NO 448], the “RAMPO Score” value falls from 463 rampo score to 345 rampo score.

Going from KKLDTFFVKLSLFTEY [SEQ ID NO 393] to KKWDTFFVKLSLFTER [SEQ ID NO 458], the “RAMPO Score” value rises from 311 rampo score to 341 rampo score.

Going from KKLDTFFVKLSLFIER [SEQ ID NO 379] to KKLDTFFVKLSLFTEK [SEQ ID NO 389], the “RAMPO Score” value falls from 375 rampo score to 291 rampo score.

Compared with KKLDTFFVTLSLFTER [SEQ ID NO 445], KFLDTFFVKLSLFTER [SEQ ID NO 421] is higher in “RAMPO Score” value: 347 rampo score for the first, 390 rampo score for the second.

Going from KKLDTFFVKLSLFSER [SEQ ID NO 384] to KGLDTFFVKLSLFTER [SEQ ID NO 412], the “RAMPO Score” value rises from 369 rampo score to 405 rampo score.

Compared with KKLDHFFVKLSLFTER [SEQ ID NO 420], KKLDTFFVKLSLFVER [SEQ ID NO 385] is lower in “RAMPO Score” value: 391 rampo score for the first, 380 rampo score for the second.

First: KKLTTFFVKLSLFTER [SEQ ID NO 413]
Second: KKLDTSFVKLSLFTER [SEQ ID NO 401]
The “RAMPO Score” value of the first is lower: 405 rampo score for the first, 432 rampo score for the second.

Compared with KKLDTFFVKLSKFTER [SEQ ID NO 438], KKLDTFFVKLSGFTER [SEQ ID NO 431] is higher in “RAMPO Score” value: 355 rampo score for the first, 370 rampo score for the second.

Compared with SKLDTFFVKLSLFTER [SEQ ID NO 453], KKLDTFFVKLSLFTDR [SEQ ID NO 387] is higher in “RAMPO Score” value: 344 rampo score for the first, 404 rampo score for the second.

Going from KKLFTFFVKLSLFTER [SEQ ID NO 426] to KKLDTYFVKLSLFTER [SEQ ID NO 434], the “RAMPO Score” value falls from 380 rampo score to 364 rampo score.

First: KKLDTFNVKLSLFTER [SEQ ID NO 443]
Second: KKLDVFFVKLSLFTER [SEQ ID NO 429]
The “RAMPO Score” value of the first is lower: 348 rampo score for the first, 374 rampo score for the second.

Compared with KPLDTFFVKLSLFTER [SEQ ID NO 405], KKPDTFFVKLSLFTER [SEQ ID NO 436] is lower in “RAMPO Score” value: 425 rampo score for the first, 361 rampo score for the second.

Compared with KKLDTFFVKLYLFTER [SEQ ID NO 415], KKLDTFEVKLSLFTER [SEQ ID NO 424] is lower in “RAMPO Score” value: 402 rampo score for the first, 381 rampo score for the second.

Going from KKLDTFFVKLSLFTPR [SEQ ID NO 439] to KKLDTFFVKLCLFTER [SEQ ID NO 457], the “RAMPO Score” value falls from 351 rampo score to 341 rampo score.

Going from KHLDTFFVKLSLFTER [SEQ ID NO 418] to KKLDTFCVKLSLFTER [SEQ ID NO 409], the “RAMPO Score” value rises from 394 rampo score to 411 rampo score.

With KNLDTFFVKLSLFTER [SEQ ID NO 402] the “RAMPO Score” value was 432 rampo score.
